Test results as given in PMC7082840 (Developmental cell, 2019).

Target: the molecule itself
Assay: native gel or EMSA

B1: NEUROG3^S183A (natural protein, human, UniProt Q9Y4Z2 1-214, looked up)
chain: MTPQPSGAPTVQVTRETERSFPRASEDEVTCPTSAPPSPTRTRGNCAEAEEGGCRGAPRKLRARRGGRSRPKSELALSKQRRSRRKKANDRERNRMHNLNSALDALRGVLPTFPDDAKLTKIETLRFAHNYIWALTQTLRIADHSLYALEPPAPHCGELGSPGGSPGDWGSLYSPVSQAGSLAPAASLEERPGLLGATFSACLSPGSLAFSDFL
binding result: binds
